Results on four molecules are retold here after patent publication US20230257469A1 (SINOCELLTECH, published 2023).

Read-outs that look alike come from different tables or passages of the source.

In test [1] the target is T1, EGFR on tumor cells (UniProt P00533 25-1210, limits assumed). In words: cell-based or functional assay.
The target in test [2] is T2, Recombinant human EGFR-His protein (human, UniProt P00533 25-645).
T2 construct: Bought protein; also called recombinant human EGFR protein; human EGFR protein; not shown: His tag
In words: ELISA as in Example 1.2.1.

Test [3] deals with T1, EGFR on tumor cells. In words: cell-based or functional assay. This is another data set of the same source.
In test [4] the target is T2, Recombinant human EGFR-His protein. In words: ELISA; EGFR-His coated at 1.37-3000 ng/mL, antibody at 13.89 nM; EC50 counted on the coated antigen concentration.
Test [5] deals with T1, EGFR on tumor cells. In words: cell-based or functional assay. The source holds these as a separate data set.
For test [6], the target named is T1, EGFR on tumor cells. In words: cell-based or functional assay. The source holds these as a separate data set.
Test [7] concerns the target T2, Recombinant human EGFR-His protein. In words: ELISA as in Example 1.2.1; EC50 counted on the coated EGFR-His concentration.
Test [8] shares this target. In words: BLI (Fortebio OctetRED96e), biotinylated recombinant human EGFR protein, fit over several concentrations.
The target is the same in test [9]. In words: ELISA of expressed phage-library clones on recombinant human EGFR protein.

In the test with EGFR on tumor cells [1], SCT200 (antibody) had an EC50 (nM), inhibition of proliferation of Fadu cells, ligand: 1 µg /mL EREG of 14.5 nM; an EC50 (nM), inhibition of proliferation of Fadu cells, ligand: None of 0.129 nM; an EC50 (nM), inhibition of proliferation of MDA-MB-468 cells, ligand: 8 ng/mL HB-EGF of 7.52 nM; an EC50 (nM), inhibition of proliferation of MDA-MB-468 cells, ligand: 1 µg/mL EREG of 1.44 nM. In the test with EGFR on tumor cells [1], this molecule gave an EC50 (nM), inhibition of proliferation of MDA-MB-468 cells, ligand: None of 1.97 nM; a Maximum inhibition rate (%), proliferation of Fadu cells, ligand: 4 ng/mL EGF of 68.5%; a Maximum inhibition rate (%), proliferation of Fadu cells, ligand: 8 ng/mL HB-EGF of 65%; a Maximum inhibition rate (%), proliferation of Fadu cells, ligand: 1 µg /mL EREG of 48.3%. In the test with EGFR on tumor cells [1], this molecule had a Maximum inhibition rate (%), proliferation of Fadu cells, ligand: None of 49.7%; a Maximum inhibition rate (%), proliferation of MDA-MB-468 cells, ligand: 8 ng/mL HB-EGF of 53.4%; a Maximum inhibition rate (%), proliferation of MDA-MB-468 cells, ligand: 200 ng/mL BTC of 40.9%; a Maximum inhibition rate (%), proliferation of MDA-MB-468 cells, ligand: 1 µg/mL EREG of 66.7%. The same molecule registered a Maximum inhibition rate (%), proliferation of MDA-MB-468 cells, ligand: None with EGFR on tumor cells [1] of 52.3%. In test [2], the EC50 turned out to be 0.167 µg/mL.

B1: human-mouse chimeric antibody EGFR-mhPA8 (antibody, human IgG1, kappa, V domains shown)
VH: QVQLQQSGPDLVKPGASVRISCKVSGYTFTTYYTHWVKQRPGRGLEWIGWIYPGDVNTKYNEKFKGKATLTADKTSSTAYMQLSSLTSEDSAVYFCAREDPGSNYFDYWGQGTTLTVSS
VL: DIQMTQSPASLAASVGETVTITCRASENIYYSLAWYQQKEGKSPQLLIYITNGLADGVPSRFSGSGSGTQYSMKIDSMQPEDTATYFCKQSYDVPLTFGAGTKLEMKR
notes: Human IgG1 and kappa constant regions; also called murine antibody EGFR-mhPA8
For the molecule B1, the “EC50 of inhibition of proliferation of MDA-MB-468 cells (WST-8)” value in the test with EGFR on tumor cells [3] turned out to be 2.78 nM. Also, in test [4], the EC50 amounted to 0.129 µg/mL.

B2: humanized antibody EGFR-HPA8 (antibody, human IgG1, kappa, V domains shown)
VH: EVQLVQSGAEVKKPGATVKISCKVSGYTFTTYYTHWVKQAPGKGLEWIGWIYPGDVNTKYNEKFKGRVTLTADTSTDTAYMELSSLRSEDTAVYYCAREDPGSNYFDYWGQGTLVTVSS
VL: DIQMTQSPSSLSASVGDRVTITCRASENIYYSLAWYQQKPGKAPQLLIYITDGLADGVPSRFSGSGSGTDYTLKIDSLQPEDFATYYCKQSYDVPLTFGGGTKVEIKR
notes: IgG1/kappa; expressed in HEK-293 cells (fut8 knockout), ADCC-enhanced; also called EGFR-HPA8-Ae0
For the molecule B2, the “EC50 for the induction of ADCC, recombinant CD16a reporter gene system (Jurkat-NFAT-Luc2p-CD16A effector cells, A431 target cells)” value in the test with EGFR on tumor cells [3] came out at 0.008 nM. In the test with EGFR on tumor cells [5], the “EC50 (nM), inhibition of proliferation of MDA-MB-468 cells, ligand: 8 ng/mL HB-EGF” value was determined as 2.64 nM; the “EC50 (nM), inhibition of proliferation of MDA-MB-468 cells, ligand: 1 µg/mL EREG” value was 0.81 nM; the “EC50 (nM), inhibition of proliferation of MDA-MB-468 cells, ligand: None” value was 0.9 nM. In addition, in the test with EGFR on tumor cells [6], the “EC50 (nM), inhibition of proliferation of Fadu cells, ligand: 1 µg /mL EREG” value was found to be 10.9 nM and the “EC50 (nM), inhibition of proliferation of Fadu cells, ligand: None” value turned out to be 0.126 nM. Moreover, the EC50 in test [7] worked out at 0.117 µg/mL. Besides, in test [8], the Kd was 0.0069 nM, the koff was determined as 1.1e-05 s⁻¹ and the kon was found to be 1.59e+06 M⁻¹ s⁻¹.

B3: EGFR-mhPA8 scFv antibody (scFv)
scFv: DIQMTQSPASLAASVGETVTITCRASENIYYSLAWYQQKEGKSPQLLIYITNGLADGVPSRFSGSGSGTQYSMKIDSMQPEDTATYFCKQSYDVPLTFGAGTKLEMKSSGGGGSGGGGGGSSRSSQVQLQQSGPDLVKPGASVRISCKVSGYTFTTYYTHWVKQRPGRGLEWIGWIYPGDVNTKYNEKFKGKATLTADKTSSTAYMQLSSLTSEDSAVYFCAREDPGSNYFDYWGQGTTLTVSS
notes: Screened as a clone of a phage display library in pComb3x; also called EGFR-mhPA8 scFv antibody clone; murine antibody scFv
For B3, in test [9], the binding result is listed as “binds”.
